Data from the nanobody polyreactivity screen of Harvey et al. (2022).

Assay: yeast display, Sf9 membrane polyspecificity reagent, FACS + sequencing; frameworks hold sequencing errors
Method in brief: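 Polyreactivity labels are assigned by the sorting gate from which each nanobody was recovered. The gates were low and high (top ~1%), set on anti-HA fluorescence for expression and streptavidin fluorescence for reagent binding. Before sorting, galactose-induced (36–48 hours) yeast display cells were stained for 1 hour at 4 °C with 10% biotinylated, detergent-solubilized Sf9 membrane reagent.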

Row | Sequence | polyreactivity (PSR sort gate)
1 | QVQLVESGGGLVQAGGSLRLSCAASGSLFYSNTMGWYRQAPGKERELVAAISRGGSTYYADSVKGRFTISRDNAKNTVYLQMNSLKPEDTAVYYCAARYRWAPAYDYWGQGTQVTVSS | high polyreactivity
2 | QVQLVESGGGLVQAGGSLRLSCAASGSLIGQNAMGWYRQAPGKERELVATISRSGARTYYADSVKGRFTISRDIAKNTVYLQMNSLKPEDTAVYYCAARLLSVGVPMYSWGQGTQVTVSS | high polyreactivity
3 | QVQLVESGGGLVQAGGSLRLSCAASGSMFGYYAMGWYRQATGKERELVASIRRGSSTNYADSVKGRFTISRDNAKNTVYLQMNSLKPEDTAVYYCNAVLLSYDARGYSNLYDYWGQGPQVTVSS | low polyreactivity
4 | QVQLVESGGGLVQAGGSLRLSCAASGSMFSTYAMGWYRQAPGKERELVAASSRSGGSTYYADSVKGRFTISRDNAKNTVYLQMNSLKPEDTADYYCAKVARRQRYDYWGQGTQVTVSS | high polyreactivity
5 | QVQLVESGGGLVQAGGSLRLSCAASGSNFANYAMGWYIQAHGKERELVAAISWSGSSTYYADSVKGRFTISRYNAKNTVYLQMNSLKPEDTAVYYCAADYATPTWEYYYWGQGTQVTVSS | low polyreactivity
6 | QVQLVESGGGLVQAGGSLRLSCAASGSNFDPIVMGGYRKAPGKERELVAAIDVSGGSTYYADSVKGRFTISRDNAKNTVYLQMNSLKPEDTAVYYCAADAEGSASKYDYWGQGTQVTVSS | low polyreactivity
7 | QVQLVESGGGLVQAGGSLRLSCAASGSNFETNSMGGYRQAPGQERELVAVIWRGASTYYADSVKARFTISRDNAKNTVNLQMNSLKPDDTAVYYCNARPAYAGRYAYTRYYWGQGTQVTVSS | low polyreactivity
8 | QVQLVESGGGLVQAGGSLRLSCAASGSNFFLYAMGWYRQAPGKEREFVAAITGTADSTYYADSVKGRFTISRDDAKNTVYLQMNSLKPEDTAVYYCATDYWSSVKLDDYWGQGTQVTVSS | low polyreactivity
9 | QVQLVESGGGLVQAGGSLRLSCAASGSNFGEYAMGWYRQAPGKERELVAAITSGGNTYYADSVKGRFTISRDNAKNTVYLQMNSLKPEDTAVYYCAATRTRYWGGDYWGQGTQVTVSS | low polyreactivity
10 | QVQLVESGGGLVQAGGSLRLSCAASGSNFGYYAMAWYRQAPGKERELVAVITWNTGNTYYADSVKGRFTISRDNAKNTVYLQMNRLKPEDTAVYYCAADQTGWGDTYDYWGQGTEVTVSS | low polyreactivity
11 | QVQLVESGGGLVQAGGSLRLSCAASGSNFHPYAMGWYRPAPGKEREFVAAITFRGSTYYADSVKGRFTISRDNAKNTVYLQLNSLKPEDTAVYYCAARYNIFRRGSRNYDYWGQGTEVTVSS | high polyreactivity
12 | QVQLVESGGGLVQAGGSLRLSCAASGSNFINNAMGWYRQAPGKERELVAAISYSGGRTYYADSVKGRFTISRDNAKNTVYLQMNSLKPEDTAVYYCAADRSHRMNWGQGTQVTVSS | high polyreactivity
13 | QVQLVESGGGLVQAGGSLRLSCAASGSNFKRYTMGLYRQAPGKEWELVAAISTSSGSTYYADSVKGRFTISRDNANNSVYLQMNSLKPEDTAVYYCAAVRHRQTYPKYNYWGQGTQVTVSS | high polyreactivity
14 | QVQLVESGGGLVQAGGSLRLSCAASGSNFLDNAMGWYRQAPGKERELVAAITSSGGSTYYADSVKGRFTISRDNAKNTVYLQMNSLKPEDTAVYYCAADEWIVHEGYYSSYYYWGQGTQVTVSS | low polyreactivity
15 | QVQLVESGGGLVQAGGSLRLSCAASGSNFLRNAMGWYRQAPGKERELVAAIRWNAGSTYYADSVKGRFTISRDNAKNTVYLQMNSLKPEDTAVYFCAADGYYGRGYWIRTLKFDYWGQGTQVTVSS | high polyreactivity
16 | QVQLVESGGGLVQAGGSLRLSCAASGSNFLYSAMGWYRQAPGKERELVAVISWSGVSTYYADSVKGRFTISRDNAKNTVYLQMNSLKPEDTAVYYCNTGNHYIRTYGYWGQGTQVTVSS | low polyreactivity

Row | Sequence | polyreactivity (PSR sort gate)
17 | QVQLVESGGGLVQAGGSLRLSCAASGSNFPYYALGWYRQAPGNERELVATITYRGGSTNYADSVKGRFTISRDNAKNTVYLQMNSLKPEDTAVYYCADYGYVLASPYPYSFVKLGYWGQGTQVTVSS | low polyreactivity
18 | QVQLVESGGGLVQAGGSLRLSCAASGSNFSSNAMGWYRQAPGKERELFAAITWSGGSTYYADSVKGRFTISRDNAKKTVYFEMNSLKPEDTAGFYCNARRNVRQTFGYEYWGQGTQVTVSS | high polyreactivity
19 | QVQLVESGGGLVQAGGSLRLSCAASGSNFSYYAMGWYRQAPGKERELVAAITWRSGRTYYADSVKGRFTISRDNAKNTVYLQMNSLKPEDTAVYYCAAYWWRVKYHGYYYWGQGTQVTVSS | high polyreactivity
20 | QVQLVESGGGLVQAGGSLRLSCAASGSNFTFNALGWYRQAPGKERELVAAISKSGDRTYADSVKGRFTISRDNAKNTVYLQMNSLKPDDTAVYYCAADFSVSRYDYWGQGTQVTVSS | low polyreactivity
21 | QVQLVESGGGLVQAGGSLRLSCAASGSNFTLYAMGWYRPAPGKERELVAAISRRGDRTYYADSVKGRFTISRDNAKNTVYLQMNSLKPADTAVYSCNARRAPPLPYYYWGQGTQVTVSS | high polyreactivity
22 | QVQLVESGGGLVQAGGSLRLSCAASGSNFTSYAMGWYRQAPGKERELVAAITRGGRTYYADSVKGRFTISRDNAKNTVYLQMNSLKPEDTAVFYCNAPGYRGYEYWGQGTQVTVSS | high polyreactivity
23 | QVQLVESGGGLVQAGGSLRLSCAASGSNFTTYSMGWYRQATGKERELVAASTSGSSTNYADSVKGRFTISRDNAKNTVYLQMNSLKPEDTAVYYCAVDREWPCYYYAMSKMYYWGQGTQVTVSS | low polyreactivity
24 | QVQLVESGGGLVQAGGSLRLSCAASGSNFVGYAMGWYRQAPGKERELVAGITASGTNTYYADSVKGRFTISRDNAKNTVYLQMNSLKPEDTAVYYCAAESNRRFEGEYWGQGTQVTVSS | high polyreactivity
25 | QVQLVESGGGLVQAGGSLRLSCAASGSNFVLYAMGWYRQAPGKESELVAAISSSGGSTYADSVKGRFTISRDNAKNTVYLQMNSLKPEDTAVYYCARDVYLSDPPRDYDYWGQGTQVTVSS | low polyreactivity
26 | QVQLVESGGGLVQAGGSLRLSCAASGSNFVRNVMGWYRQAPGKERELVAGISWNGGSTFYADSVKGRFTISRDNAKNTVYLQMNCLKPEDTAVYYCATPYGRHGWFYLYDYWGQGTLVTVSS | low polyreactivity
27 | QVQLVESGGGLVQAGGSLRLSCAASGSNFVTNAMGWYRQAPGKERELVAAISVSGGSTYYADSVKGRFTFSRDNAKNTVYLQMNSLKPEDTEVYYCAADGFIGCRHIYEYWGQGTQVTVSS | low polyreactivity
28 | QVQLVESGGGLVQAGGSLRLSCAASGSNFVYNAMGWYRQAPGKERELVAAISGSGDSTYYADSVKGRFTISRDNAKNTVYLQMNSLKPEDTAVYYCAARMSTADFYKGDYWGQGTQVTVSS | low polyreactivity
29 | QVQLVESGGGLVQAGGSLRLSCAASGSNKQNAMGWYRQSPGKERELLARISKYGGSTYADSVKGRFTISRDNAKNTVYLQMNSLKPEDTAVYYCNAVKRDRNHHATKCEYAYWGQGTPVTVSS | low polyreactivity
30 | QVQLVESGGGLVQAGGSLRLSCAASGSNLSAYAMGWYRQAPGKERELVAAISWSGGSTYYADSVKGRFTISRDNAKNTVYFQMNSLKPEDTAVYYCATVNKKWRRYDYWGQGSQVTVSS | high polyreactivity
31 | QVQLVESGGGLVQAGGSLRLSCAASGSPVSRYALGWYRQAPGKERELVAAFSWGGNTYYADSVKGRFTISRDNAKNTVYLQMKSLKPEDTAVYYCNRYSKLYNTMDYWGQGTQVTVSS | high polyreactivity
32 | QVQLVESGGGLVQAGGSLRLSCAASGSRNAMGWYRQAPGKESEFVAAITWNGGSTYYADSVKGRFTISRDNAKNTVYLQMNSLKPEDTAVYYCNKREVFIYGTTYDYWRQGTQVTVSS | low polyreactivity
